These results are taken from patent US20210107982A1 (NANJING LEADS BIOLABS, published 2021).

Test [1] addresses T1, Human 4-1BB, human Fc tag protein (Hu4-1BB-hFc) (human).
T1 construct: also called Hu4-1BB-huFc; human 4-1BB proteins
As to the kind of experiment: ELISA, Hu4-1BB-hFc coated, antibody 6.65 nM to 0.009 nM. A general note: ELISA stands for enzyme-linked immunosorbent assay.

For test [2], the target named is T2, Human 4-1BB recombinant protein (Sinobiological, Cat #10041-H08H) (human, UniProt Q07011 24-186).
T2 construct: Bought recombinant protein
Put plainly: BLI (ForteBio Octet RED 96), antibody on AHC sensors, human 4-1BB as analyte, 1:1 model.

Test [3] addresses T3, Human 4-1BB expressed on HEK293-NFκB-Luc-human 4-1BB cells (human, UniProt Q07011 24-255). As to the kind of experiment: cell-based or functional assay.
In test [4] the target is T2, Human 4-1BB recombinant protein …. Put plainly: ELISA on plate-coated human 4-1BB (25 ng/well), HRP anti-human IgG F(ab')2 detection, OD450; EC50 table under the curve, unit taken from the axis 'Antibody Conc [nM]'.
In test [5] the target is T4, Human GITR (Sinobiological, Cat #13643-H08H) (human, UniProt Q9Y5U5 26-161).
T4 sequence (looked up): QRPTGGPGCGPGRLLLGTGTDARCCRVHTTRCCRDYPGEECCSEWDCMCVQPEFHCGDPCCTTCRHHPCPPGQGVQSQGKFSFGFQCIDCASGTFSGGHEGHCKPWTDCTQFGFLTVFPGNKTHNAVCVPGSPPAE
As to the kind of experiment: ELISA, antigen coated at 25 ng/well.

Test [6] deals with T5, Human CD27 (Sinobiological, Cat #10039-H31H) (human, UniProt P26842 20-192).
T5 sequence (looked up): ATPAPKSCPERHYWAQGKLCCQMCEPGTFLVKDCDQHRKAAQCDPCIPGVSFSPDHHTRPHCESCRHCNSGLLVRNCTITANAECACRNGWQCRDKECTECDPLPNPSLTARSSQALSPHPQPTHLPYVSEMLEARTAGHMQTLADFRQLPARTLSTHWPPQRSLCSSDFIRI
Put plainly: ELISA, antigen coated at 25 ng/well.

Test [7] has as its target Human CD40 (Sinobiological, Cat #10774-H08H) (human, UniProt P25942 21-193). Put plainly: ELISA, antigen coated at 25 ng/well.
Test [8] has as its target T6, Human HVEM (Sinobiological, Cat #10334-H03H) (human, UniProt Q92956 39-202).
T6 sequence (looked up): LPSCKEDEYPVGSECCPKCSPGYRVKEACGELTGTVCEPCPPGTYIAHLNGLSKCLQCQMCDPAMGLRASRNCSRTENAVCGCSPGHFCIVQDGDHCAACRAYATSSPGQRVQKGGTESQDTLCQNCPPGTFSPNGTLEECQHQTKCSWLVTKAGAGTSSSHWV
Put plainly: ELISA, antigen coated at 25 ng/well.

The target in test [9] is T7, Human OX40 (Sinobiological, Cat #10481-H08H) (human, UniProt P43489 29-216).
T7 sequence (looked up): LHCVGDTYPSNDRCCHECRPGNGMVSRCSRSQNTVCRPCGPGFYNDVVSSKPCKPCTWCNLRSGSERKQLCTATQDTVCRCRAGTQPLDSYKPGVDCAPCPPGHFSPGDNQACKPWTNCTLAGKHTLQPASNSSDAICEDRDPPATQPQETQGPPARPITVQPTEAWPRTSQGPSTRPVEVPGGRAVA
Put plainly: ELISA, antigen coated at 25 ng/well.

For test [10], the target named is T3, Human 4-1BB expressed on …. As to the kind of experiment: cell-based or functional assay. The source holds these as a separate data set.
Test [11] addresses T3, Human 4-1BB expressed on …. Put plainly: cell-based or functional assay. The source holds these as a separate data set.
For test [12], the target named is T2, Human 4-1BB recombinant protein …. As to the kind of experiment: ELISA on plate-coated human 4-1BB (25 ng/well), HRP anti-human IgG F(ab')2 detection, OD450; EC50 table under the curve, unit taken from the axis 'Antibody Conc [nM]'. This is another data set of the same source.
For test [13], the target named is T3, Human 4-1BB expressed on …. Put plainly: cell-based or functional assay. The source holds these as a separate data set.
In test [14] the target is T3, Human 4-1BB expressed on …. As to the kind of experiment: cell-based or functional assay. The source holds these as a separate data set.
Test [15] has as its target T2, Human 4-1BB recombinant protein …. Put plainly: ELISA on plate-coated human 4-1BB (25 ng/well), HRP anti-human IgG F(ab')2 detection, OD450-620; EC50 table under the curve, unit taken from the axis 'Antibody Conc [nM]'.
The target in test [16] is T3, Human 4-1BB expressed on …. As to the kind of experiment: cell-based or functional assay. The source holds these as a separate data set.
In test [17] the target is T2, Human 4-1BB recombinant protein …. Put plainly: ELISA on plate-coated human 4-1BB (25 ng/well), HRP anti-human IgG F(ab')2 detection, OD450; EC50 table under the curve, unit taken from the axis 'Antibody Conc [nM]'. This is another data set of the same source.
Test [18] has as its target T3, Human 4-1BB expressed on …. As to the kind of experiment: cell-based or functional assay. The source holds these as a separate data set.

Where two headings read alike, the source gives them in different places.

Human CD40 (Sinobiological, Cat #10774-H08H), sequence (P25942 21-193 limits assumed): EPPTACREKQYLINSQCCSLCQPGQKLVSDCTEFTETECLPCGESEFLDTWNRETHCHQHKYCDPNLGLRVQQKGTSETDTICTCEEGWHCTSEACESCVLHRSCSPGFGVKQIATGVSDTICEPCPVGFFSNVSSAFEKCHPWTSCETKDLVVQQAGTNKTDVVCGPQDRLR
T3 sequence (Q07011 24-255 limits assumed): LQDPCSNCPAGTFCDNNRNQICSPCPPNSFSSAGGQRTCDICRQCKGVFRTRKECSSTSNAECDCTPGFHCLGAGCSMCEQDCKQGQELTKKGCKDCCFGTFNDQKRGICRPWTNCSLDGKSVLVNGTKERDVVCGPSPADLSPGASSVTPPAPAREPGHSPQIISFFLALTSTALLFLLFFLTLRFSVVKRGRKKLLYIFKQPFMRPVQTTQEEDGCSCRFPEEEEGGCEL
T1 sequence (chain, as listed by the source limits assumed): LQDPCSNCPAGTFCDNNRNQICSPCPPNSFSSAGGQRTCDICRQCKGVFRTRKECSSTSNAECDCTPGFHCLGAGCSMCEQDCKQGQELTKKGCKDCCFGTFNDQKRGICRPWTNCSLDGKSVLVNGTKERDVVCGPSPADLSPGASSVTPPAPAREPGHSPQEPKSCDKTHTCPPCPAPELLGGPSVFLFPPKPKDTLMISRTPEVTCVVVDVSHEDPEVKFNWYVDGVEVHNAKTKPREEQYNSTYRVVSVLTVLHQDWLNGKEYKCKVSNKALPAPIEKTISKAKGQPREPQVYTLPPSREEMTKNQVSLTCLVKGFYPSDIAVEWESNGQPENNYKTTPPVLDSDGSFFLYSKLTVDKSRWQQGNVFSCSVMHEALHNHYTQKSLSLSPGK

B1: P4B-2 (bispecific antibody, human IgG1, kappa, L234A L235A)
heavy: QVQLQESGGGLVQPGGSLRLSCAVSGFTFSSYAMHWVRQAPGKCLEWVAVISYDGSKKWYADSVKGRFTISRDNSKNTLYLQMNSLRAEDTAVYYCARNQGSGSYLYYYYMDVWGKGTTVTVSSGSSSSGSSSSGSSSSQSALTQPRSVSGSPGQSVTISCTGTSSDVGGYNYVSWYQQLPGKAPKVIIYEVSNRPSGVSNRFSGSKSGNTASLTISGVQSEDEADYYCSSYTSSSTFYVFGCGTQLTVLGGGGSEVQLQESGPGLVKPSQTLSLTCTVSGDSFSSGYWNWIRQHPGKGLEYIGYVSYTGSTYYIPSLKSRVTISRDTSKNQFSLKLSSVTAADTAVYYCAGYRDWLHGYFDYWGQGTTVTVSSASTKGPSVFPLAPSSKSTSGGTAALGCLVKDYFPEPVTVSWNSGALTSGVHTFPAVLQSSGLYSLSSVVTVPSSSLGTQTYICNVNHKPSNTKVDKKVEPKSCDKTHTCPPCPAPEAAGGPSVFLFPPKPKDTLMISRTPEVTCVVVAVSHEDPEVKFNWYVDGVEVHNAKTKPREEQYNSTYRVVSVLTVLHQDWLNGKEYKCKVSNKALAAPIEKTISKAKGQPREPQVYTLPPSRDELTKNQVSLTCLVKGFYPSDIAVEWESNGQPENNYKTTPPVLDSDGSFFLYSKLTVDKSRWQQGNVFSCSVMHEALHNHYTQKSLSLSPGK
light: DIQMTQSPSSLSASVGDRVTITCKASQNVMDNVAWYQQKPGKAPKRLIYSASYRFSGVPSRFSGSGSGTEFTLTISSLQPEDFATYYCQQYNGYPLTFGQGTKLEIKRTVAAPSVFIFPPSDEQLKSGTASVVCLLNNFYPREAKVQWKVDNALQSGNSQESVTEQDSKDSTYSLSSTLTLSKADYEKHKVYACEVTHQGLSSPVTKSFNRGEC
notes: PD-L1 x 4-1BB bispecific; the 4-1BB scFv stands at the N-terminus of each heavy chain of the PD-L1 antibody
The term EC50 denotes the concentration giving half of the maximal effect. Regarding B1, the EC50 in test [1] turned out to be 0.113 nM.

B2: P4B-3 (bispecific antibody, human IgG1, kappa, L234A L235A)
heavy: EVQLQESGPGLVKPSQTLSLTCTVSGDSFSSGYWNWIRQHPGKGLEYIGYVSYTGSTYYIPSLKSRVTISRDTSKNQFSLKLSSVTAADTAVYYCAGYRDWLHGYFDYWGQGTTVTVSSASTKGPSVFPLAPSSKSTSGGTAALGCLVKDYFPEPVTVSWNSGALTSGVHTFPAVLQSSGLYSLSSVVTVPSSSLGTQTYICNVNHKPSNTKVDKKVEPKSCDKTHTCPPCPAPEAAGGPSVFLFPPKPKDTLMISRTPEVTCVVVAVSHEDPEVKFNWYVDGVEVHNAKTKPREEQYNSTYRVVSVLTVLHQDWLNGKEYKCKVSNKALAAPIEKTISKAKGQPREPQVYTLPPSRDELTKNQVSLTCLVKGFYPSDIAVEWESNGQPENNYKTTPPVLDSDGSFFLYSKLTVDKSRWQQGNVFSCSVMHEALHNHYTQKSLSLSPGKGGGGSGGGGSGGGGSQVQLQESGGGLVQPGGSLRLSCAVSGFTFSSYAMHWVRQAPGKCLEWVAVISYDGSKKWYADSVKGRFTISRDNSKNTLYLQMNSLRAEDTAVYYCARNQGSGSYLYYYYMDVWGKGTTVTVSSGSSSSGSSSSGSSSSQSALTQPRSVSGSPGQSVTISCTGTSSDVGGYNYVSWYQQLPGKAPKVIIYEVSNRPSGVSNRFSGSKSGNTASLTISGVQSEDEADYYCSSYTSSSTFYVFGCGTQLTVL
light: B1 light
notes: PD-L1 x 4-1BB bispecific; the 4-1BB scFv stands at the C-terminus of each heavy chain of the PD-L1 antibody
Broadly, the Kd is the equilibrium constant for the complex coming apart. As a reminder, the koff is a measure of how fast the partners let go of each other. The term kon denotes a measure of how fast the partners come together. Turning to B2, in test [2], the Kd is 146 nM, the off-rate (koff) came to 0.00409 s⁻¹ and the kon stood at 28000 M⁻¹ s⁻¹. Further, the EC50 in [1] worked out at 0.0723 nM.

B3: 41BB-27-IgG2 (antibody, V domains shown)
VH: QVQLQESGPGPVKPSETLSLTCAVSGGSISSSHWWSWVRQPPGKGLEWIGEIYHSGRTYYNPSLKSRVTISVDTSRNQFSLKLSSVTAADTAVYYCAREDGGIMDVWGQGTLVTVSS
VL: LSSELTQDPAVSVALGQTVRITCQGDSLRRFYASWYQQKPGQAPVLVIYGKNNRPSGIPDRFSASDSGNTASLTITGAQAEDEADYYCSSRDRSGYRWVFGGGTKVTVLG
notes: Full antibody, IgG2 / lambda
For B3, the “EC50, NFκB-luciferase reporter (RLUs) in HEK293-NFκB-Luc-4-1BB cells, without crosslink” value (“EC50 … without crosslink” below) in test [3] amounted to 35.9 nM. Moreover, in test [4], the EC50 is 0.05 nM. Moreover, the binding result in test [5], in [6], in test [7], in test [8] and in test [9] was “no binding (tested: 500 ng/mL)” throughout.

B4: 41BB-9-IgG2 (antibody, V domains shown)
VH: QVQLVQSGAEVKKPGSSVKVSCKASGGTFSSYAISWVRQAPGQGLEWMGGIIPISGAVNYAQKFQGRVTITADESTSTAYMELSSLRSEDTAVYYCARDQFIKYYDFSSGYFPNGFDIWGKGTLVTVSS
VL: QTVVTQPPSVSVSPGQTASITCSGDKLGDKYAAWYQQKPGQSPVLVIYQDTVRPSGIPERFSGSNSGNTATLTISGTQAMDEADYYCQTWVSSTGVFGTGTKVTVLG
notes: Full antibody, IgG2 / lambda
For the molecule B4, the binding result in test [5], in test [6], in test [7], in test [8] and in test [9] was “no binding (tested: 500 ng/mL)” in each case. For the same molecule, in [10], the “EC50 … without crosslink” value came out at 16.6 nM. Moreover, the “EC50, NFκB-luciferase reporter (RLUs) in HEK293-NFκB-Luc-4-1BB cells, with crosslink (goat anti-human IgG)” value (from here on “EC50 … (goat anti-human IgG)”) in test [11] worked out at 3.24 nM. In [12], the concentration giving a half-maximal response (EC50) came to 0.134 nM.

B5: 41BB-2-IgG2 (antibody, V domains shown)
VH: QVQLQESGGGLVQPGGSLRLSCAVSGFTFSSYAMHWVRQAPGKGLEWVAVISYDGSKKWYADSVKGRFTISRDNSKNTLYLQMNSLRAEDTAVYYCARNQGSGSYLYYYYMDVWGKGTTVTVSS
VL: QSALTQPRSVSGSPGQSVTISCTGTSSDVGGYNYVSWYQQLPGKAPKVIIYEVSNRPSGVSNRFSGSKSGNTASLTISGVQSEDEADYYCSSYTSSSTFYVFGTGTQLTVLS
notes: Full antibody; VH joined to the IgG2 constant region, VL to the lambda constant region
For the molecule B5, the “EC50 … without crosslink” value turned out to be 56.1 nM in test [3] and 47.4 nM in test [13]. The “EC50 … (goat anti-human IgG)” value in test [14] turned out to be 6.21 nM. The EC50 in test [15] turned out to be 0.622 nM. Moreover, the binding result in [5], in [6], in test [7], in test [8] and in [9] was “no binding (tested: 500 ng/mL)” in each case.

B6: Urelumab (antibody, human IgG4 S228P, kappa, V domains shown)
VH: QVQLQQWGAGLLKPSETLSLTCAVYGGSFSGYYWSWIRQSPEKGLEWIGEINHGGYVTYNPSLESRVTISVDTSKNQFSLKLSSVTAADTAVYYCARDYGPGNYDWYFDLWGRGTLVTVSS
VL: EIVLTQSPATLSLSPGERATLSCRASQSVSSYLAWYQQKPGQAPRLLIYDASNRATGIPARFSGSGSGTDFTLTISSLEPEDFAVYYCQQRSNWPPALTFCGGTKVEIKR
Take B6: the “EC50 … without crosslink” value came to 32.3 nM in test [16], 26.8 nM in test [13] and 34 nM in [10].

B7: 41BB-13-IgG2 (antibody, V domains shown)
VH: EVQLVETGVEVKKPGASVKVSCKASGYTFTSYYMHWVRQAPGQGLEWMGIINPSGGSTSYAQKFQGRVTMTRDTSTSTAYMELSSLRSEDTAVYYCARDLGEGYDFWSGYYTPSGAFDIWGKGTMVTVSS
VL: QSALTQPASVSGSPGQSITISCTGTSSDVGGYNYVSWYQQRPGKAPKLIIYDVTTRPSGVSNRFSGSKSGTTASLTISGLQAEDEADYYCSSYTSYSTWVFGGGTKLTVLG
notes: Full antibody, IgG2 / lambda
In the case of B7, in test [17], the EC50 was determined as 1.27 nM. For the same molecule, the “EC50 … without crosslink” value in [16] worked out at 106 nM. The “EC50 … (goat anti-human IgG)” value in [18] was 10.6 nM. The binding result in [5], in test [6], in [7], in test [8] and in [9] was “no binding (tested: 500 ng/mL)” throughout.
